Residue numbers refer to the chain shown, from its start.
B1: anti-human CD47/PD-L1 bispecific antibody 2MW1531-m8 (bispecific antibody)
heavy 1: EVQLVQSGAEVKKPGASVKVSCKASGYKFTNYVMSWVRQAPGQRLEWMGYINPYNDAIKYNEKFTGRVTITRDTSASTAYMELSSLRSEDTAVYYCAREGDFYANYGRLGFAYWGQGTLVTVSSASTKGPSVFPLAPCSRSTSESTAALGCLVKDYFPEPVTVSWNSGALTSGVHTFPAVLQSSGLYSLSSVVTVPSSSLGTQTYTCNVDHKPSNTKVDKRVESKYGPPCPPCPAPEFLGGPSVFLFPPKPKDTLMISRTPEVTCVVVDVSQEDPEVQFNWYVDGVEVHNAKTKPREEQYNSTYRVVSVLTVLHQDWLNGKEYKCKVSNKGLPSSIEKTISKAKGQPREPQVYTLPPSQKEMTKNQVSLTCLVKGFYPSDIAVEWESNGQPENNYKTTPPVLDSDGSFFLYSKLTVDKSRWQEGNVFSCSVMHEALHNRYTQKSLSLSLGK
heavy 2: EVQLVQSGAEVKKPGATVKISCKVSGFNIKDIYMHWVQQAPGKGLEWMGRIDPANANTKYDPKFQDRVTITADTSTNTAYMELSSLRSEDTAVYYCASGQLGPLGFDYWGQGTTVTVSSASTKGPSVFPLAPCSRSTSESTAALGCLVKDYFPEPVTVSWNSGALTSGVHTFPAVLQSSGLYSLSSVVTVPSSSLGTQTYTCNVDHKPSNTKVDKRVESKYGPPCPPCPAPEFLGGPSVFLFPPKPKDTLMISRTPEVTCVVVDVSQEDPEVQFNWYVDGVEVHNAKTKPREEQYNSTYRVVSVLTVLHQDWLNGKEYKCKVSNKGLPSSIEKTISKAKGQPREPQVYTLPPSQEEMTKNQVSLTCLVKGFYPSDIAVEWESNGQPENNYKTTPPVLDSDGSFFLYSKLTVDKSRWQEGNVFSCSVMHEALHNHYTQESLSLSLGK
VL: DIQMTQSPSSLSASVGDRVTITCRASQDISNYLNWYQQKPGKAPKLLLYYTSRLHSGVPSRFSGSGSGTDYTLTISSLQPEDFATYFCQQGAGRPRTFGGGTKVEIKRTVAAPSVFIFPPSDEQLKSGTASVVCLLNNFYPREAKVQWKVDNALQSGNSQESVTEQDSKDSTYSLSSTLTLSKADYEKHKVYACEVTHQGLSSPVTKSFNRGEC
notes: Knobs-into-holes with a common light chain
B2: anti-human CD47/PD-L1 bispecific antibody 2MW1531-m3 (bispecific antibody)
heavy 1: B1 heavy 1
heavy 2: B1 heavy 2
VL: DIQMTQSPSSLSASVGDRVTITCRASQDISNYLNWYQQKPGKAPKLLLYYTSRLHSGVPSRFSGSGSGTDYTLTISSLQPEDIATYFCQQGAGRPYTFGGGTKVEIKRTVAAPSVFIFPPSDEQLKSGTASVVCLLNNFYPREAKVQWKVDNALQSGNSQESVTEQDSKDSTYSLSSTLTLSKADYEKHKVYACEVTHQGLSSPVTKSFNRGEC
notes: as for B1
B3: anti-human CD47/PD-L1 bispecific antibody 2MW1531-m10 (bispecific antibody)
heavy 1: B1 heavy 1
heavy 2: B1 heavy 2
VL: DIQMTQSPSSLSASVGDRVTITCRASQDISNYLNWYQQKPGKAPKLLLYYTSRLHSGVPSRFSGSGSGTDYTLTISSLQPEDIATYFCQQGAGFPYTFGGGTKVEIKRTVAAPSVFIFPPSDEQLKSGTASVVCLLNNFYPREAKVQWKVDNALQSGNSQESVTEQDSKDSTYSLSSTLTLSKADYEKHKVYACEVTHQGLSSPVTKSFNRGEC
notes: as for B1
B4: anti-human CD47/PD-L1 bispecific antibody 2MW1531-m9 (bispecific antibody, human IgG4 S228P, kappa)
heavy 1: B1 heavy 1
heavy 2: B1 heavy 2
VL: B1 VL with A92D, G93T, R94F, R96Y
notes: as for B1
B5: anti-human CD47/PD-L1 bispecific antibody 2MW1531-m11 (bispecific antibody)
heavy 1: B1 heavy 1
heavy 2: B1 heavy 2
VL: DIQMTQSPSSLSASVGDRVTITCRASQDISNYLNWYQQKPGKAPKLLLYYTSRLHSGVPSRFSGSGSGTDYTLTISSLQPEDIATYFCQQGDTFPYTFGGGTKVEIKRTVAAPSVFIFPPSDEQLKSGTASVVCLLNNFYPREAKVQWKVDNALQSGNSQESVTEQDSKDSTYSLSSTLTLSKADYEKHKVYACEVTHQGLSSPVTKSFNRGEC
notes: as for B1

Target: T1, recombinant antigen of the extracellular region of CD47 (Sino Biological, Cat: 12283-H08H) (human, UniProt Q08722 19-139)
T1 construct: extracellular domain; also called recombinant CD47 extracellular region; CD47 recombinant protein
Experiment: Fortebio BLI

Kd [nM] | koff [s⁻¹] | kon [M⁻¹ s⁻¹] | Binder
107 | 0.00937 | 87900 | B1
65.7 | 0.00769 | 117000 | B2
54.8 | 0.00547 | 99800 | B3
79.6 | 0.00947 | 119000 | B4
74.9 | 0.00907 | 121000 | B5

Target: PD-L1 (human, UniProt Q9NZQ7 19-239, limits assumed)
Sequence (Q9NZQ7 19-239 limits assumed): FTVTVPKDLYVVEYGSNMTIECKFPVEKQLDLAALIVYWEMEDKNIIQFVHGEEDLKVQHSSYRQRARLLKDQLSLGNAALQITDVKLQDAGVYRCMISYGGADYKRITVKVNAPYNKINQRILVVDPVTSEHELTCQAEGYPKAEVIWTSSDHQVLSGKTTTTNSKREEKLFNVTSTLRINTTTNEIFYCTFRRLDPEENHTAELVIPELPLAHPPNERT
Experiment: Fortebio BLI

Kd [nM] | koff [s⁻¹] | kon [M⁻¹ s⁻¹] | Binder
0.546 | 0.000134 | 245000 | B1
1.02 | 0.000163 | 159000 | B2
1.28 | 0.000369 | 288000 | B3
0.706 | 0.000272 | 385000 | B4
0.784 | 0.000237 | 302000 | B5

Target: T2, CD47 on the surface of human red blood cells (human, UniProt Q08722 19-323)
T2 construct: whole, on cells; Same protein as m3, on red blood cells; also called hRBC; RBC
Experiment: FACS, human red blood cells, antibody 1000 nM
Experimental: (§1) In the experiment of analyzing the binding to human red blood cells, the antibody was used at a concentration of 1000 nM; and in the experiment of analyzing the binding to tumor cells, the antibody was used at a concentration of 100 nM.

Binding to human red blood cells (MFI) | Binder
763 | B1
955 | B2
890 | B3
781 | B4
878 | B5

Target: T3, CD47 on the surface of tumor cells (human, UniProt Q08722 19-323)
T3 construct: whole, on cells; Same protein as m4; also called CD47 antigen on the surface of U937 and CCRF cells; SKOV-3
Experiment: FACS, SKOV-3 tumor cells (no PD-L1), antibody 100 nM
Experimental: as §1

Binding to tumor cells (MFI) | Binder
28200 | B1
34900 | B2
26200 | B3
37800 | B4
28900 | B5

Reference: patent US20230406921A1 (MABWELL SHANGHAI BIOSCIENCE, published 2023)
